According to publication PMC4336380, “Promiscuous Binding of Karyopherinβ1 Modulates FG Nucleoporin Barrier Function and Expedites NTF2 Transport Kinetics” (Biophysical Journal, 2015):

Biological target: T1, wild-type rat NTF2 (nuclear transport factor 2) (rat, UniProt P61972 1-127)
T1 construct: also called wild-type NTF2; source: E. coli BL21(DE3) CodonPlus RIL, purified (NiNTA agarose, gel filtration Superdex S-75)
Experiment: SPR; Biacore T100, 25°C, PBS pH 7.2; Nsp1p fragment grafted on gold; multivalent kinetic analysis: discrete distribution of kinetic states (kon,i, koff,i), interaction maps averaged over ~10 sensorgrams
Conditions: both partners purified

T1 sequence (P61972 whole entry): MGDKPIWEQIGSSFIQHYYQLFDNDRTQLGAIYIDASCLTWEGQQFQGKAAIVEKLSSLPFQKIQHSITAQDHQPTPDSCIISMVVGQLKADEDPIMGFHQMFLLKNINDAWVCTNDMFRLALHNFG

binding result: binds
B1: Nsp1p-5FF (yeast Nsp1p FG fragment, residues 262-359; 1x FG, 4x FSFG) (domain or fragment)
chain: not shown
notes: Nsp1p, yeast, FG fragment residues 262-359 (1x FG, 4x FSFG), in a modified pET30a vector; Grafted to the gold SPR sensor through the added N-terminal Cys residues; The vector carries a TEV site in place of the thrombin site; no cleavage is described; source: E. coli BL21(DE3) CodonPlus RIL, purified (NiNTA agarose, Superdex S-75); not shown: Cys-Cys-Trp (after the initiator Met), N-terminal, …
